Results on one substance are retold here after IntAct's records for PubMed 21398607.

This assay has as its target wasp_mouse Was (UniProt P70315).

Sequence of wasp_mouse Was (P70315 whole entry): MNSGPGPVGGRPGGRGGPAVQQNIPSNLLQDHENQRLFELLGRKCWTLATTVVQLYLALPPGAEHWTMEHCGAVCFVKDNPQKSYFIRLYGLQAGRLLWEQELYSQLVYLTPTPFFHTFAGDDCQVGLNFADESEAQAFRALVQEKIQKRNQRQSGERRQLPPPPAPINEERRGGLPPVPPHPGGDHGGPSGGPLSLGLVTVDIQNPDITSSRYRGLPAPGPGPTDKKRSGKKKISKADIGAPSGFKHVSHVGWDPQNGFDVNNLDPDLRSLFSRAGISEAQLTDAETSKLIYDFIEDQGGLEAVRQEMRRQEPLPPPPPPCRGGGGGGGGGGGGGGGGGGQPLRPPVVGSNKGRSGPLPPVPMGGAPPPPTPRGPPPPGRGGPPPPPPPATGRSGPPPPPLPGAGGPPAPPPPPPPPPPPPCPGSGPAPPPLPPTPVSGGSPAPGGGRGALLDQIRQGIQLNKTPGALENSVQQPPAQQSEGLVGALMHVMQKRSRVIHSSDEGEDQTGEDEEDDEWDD
Sequence of WAS/WASL-interacting protein family member 1 (Homo sapiens), O43516 S436A (O43516 whole entry S436A): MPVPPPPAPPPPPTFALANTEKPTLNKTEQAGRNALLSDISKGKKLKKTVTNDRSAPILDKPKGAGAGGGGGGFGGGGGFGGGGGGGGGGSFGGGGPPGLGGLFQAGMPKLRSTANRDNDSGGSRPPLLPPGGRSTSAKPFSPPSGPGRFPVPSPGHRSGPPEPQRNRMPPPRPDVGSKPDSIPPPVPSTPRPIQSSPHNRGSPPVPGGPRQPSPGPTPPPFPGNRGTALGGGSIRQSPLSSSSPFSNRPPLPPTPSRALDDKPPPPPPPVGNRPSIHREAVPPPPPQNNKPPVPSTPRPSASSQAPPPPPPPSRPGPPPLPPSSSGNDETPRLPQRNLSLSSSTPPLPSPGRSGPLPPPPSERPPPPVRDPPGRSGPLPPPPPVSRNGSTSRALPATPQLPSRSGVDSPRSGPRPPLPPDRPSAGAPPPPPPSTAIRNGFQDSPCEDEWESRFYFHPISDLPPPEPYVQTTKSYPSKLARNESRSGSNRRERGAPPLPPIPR

Consider “WAS/WASL-interacting protein family member 1 (Homo sapiens), O43516 S436A”, for which the “effect of a mutation on the interaction” value is “disrupting interaction”.
